The assay has as its target T1, receptor binding domain (RBD) of wildtype SARS-CoV-2 spike (residues 319-541) (SARS-CoV-2, UniProt P0DTC2 319-541).
T1 construct: range 319-541
The experiment in a line: SPR, purified ACE2 protein on purified RBD of SARS-CoV-2 spike. For orientation: SPR reads the build-up and loss of mass on a sensor chip optically.

B1: purified human ACE2 mutant Q24del (receptor)
chain: STIEEAKTFLDKFNHEAEDLFYQSSLASWNYNTNITEENVQNMNNAGDKWSAFLKEQSTLAQMYPLQEIQNLTVKLQLQALQQNGSSVLSEDKSKRLNTILNTMSTIYSTGKVCNPDNPQECLLLEPGLNEIMANSLDYNERLWAWESWRSEVGKQLRPLYEEYVVLKNEMARANHYEDYGDYWRGDYEVNGVDGYDYSRGQLIEDVEHTFEEIKPLYEHLHAYVRAKLMNAYPSYISPIGCLPAHLLGDMWGRFWTNLYSLTVPFGQKPNIDVTDAMVDQAWDAQRIFKEAEKFFVSVGLPNMTQGFWENSMLTDPGNVQKAVCHPTAWDLGKGDFRILMCTKVTMDDFLTAHHEMGHIQYDMAYAAQPFLLRNGANEGFHEAVGEIMSLSAATPKHLKSIGLLSPDFQEDNETEINFLLKQALTIVGTLPFTYMLEKWRWMVFKGEIPKDQWMKKWWEMKREIVGVVEPVPHDETYCDPASLFHVSNDYSFIRYYTRTLYQFQFQEALCQAAKHEGPLHKCDISNSTEAGQKLFNMLRLGKSEPWTLALENVVGAKNMNVRPLLNYFEPLFTWLKDQNKNSFVGWSTDWSPYAD
As usually defined, the Kd is a measure of binding affinity in units of concentration. The low end stands for a tighter complex, the high end for a looser complex. B1 returned a Kd of 416 nM.

Source of the values: patent US20230399641A1 (SHANGHAITECH UNIVERSITY, published 2023).
